The supplement of paper PMC9112550, “Optimization of the antimicrobial peptide Bac7 by deep mutational scanning” (BMC Biology, 2022)

What follows are sequences tested on Escherichia coli TOP10 (assay: shrunken log2 fold change of peptide-encoding DNA abundance (4.5 h post-induction vs induction); higher = less antimicrobial activity (less host growth inhibition)). Conditions: time post-induction: 4.5 h; library: site-saturation at positions 5, 18, 19, 20.
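Note: peptides expressed intracellularly from a pBAD plasmid library in pooled LB shake-flask culture, induced with 0.3% L-arabinose, DNA abundance read by NGS, three biological replicates, DESeq2 with apeglm shrinkage.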

Sequence | shrunken log2 fold change
RRIRFRPPRLPRPRPRPAGPPRP | 0.118
RRIRFRPPRLPRPRPRPAHFPRP | 0.0115
RRIRFRPPRLPRPRPRPAHWPRP | 0.539
RRIRFRPPRLPRPRPRPAHYPRP | -0.059
RRIRFRPPRLPRPRPRPAIHPRP | -0.478
RRIRFRPPRLPRPRPRPAIPPRP | -0.0151
RRIRFRPPRLPRPRPRPAKCPRP | -0.00691
RRIRFRPPRLPRPRPRPALGPRP | 0.423
RRIRFRPPRLPRPRPRPALLPRP | -0.00442
RRIRFRPPRLPRPRPRPALTPRP | 0.248
RRIRFRPPRLPRPRPRPAMSPRP | -0.302
RRIRFRPPRLPRPRPRPANGPRP | 0.0551
RRIRFRPPRLPRPRPRPAPNPRP | 0.408
RRIRFRPPRLPRPRPRPAQMPRP | 0.121
RRIRFRPPRLPRPRPRPAQQPRP | -0.0456
RRIRFRPPRLPRPRPRPARQPRP | 0.379
RRIRFRPPRLPRPRPRPARRPRP | 0.435
RRIRFRPPRLPRPRPRPARYPRP | 0.153
RRIRFRPPRLPRPRPRPASAPRP | 0.47
RRIRFRPPRLPRPRPRPASQPRP | -0.0114
RRIRFRPPRLPRPRPRPASVPRP | 0.344
RRIRFRPPRLPRPRPRPAVCPRP | 0.925
RRIRFRPPRLPRPRPRPAVHPRP | -0.0819
RRIRFRPPRLPRPRPRPAVTPRP | -0.347
RRIRFRPPRLPRPRPRPAWAPRP | 0.953

Sequence | shrunken log2 fold change
RRIRFRPPRLPRPRPRPAYIPRP | -0.601
RRIRFRPPRLPRPRPRPCACPRP | -0.0607
RRIRFRPPRLPRPRPRPCATPRP | 0.0672
RRIRFRPPRLPRPRPRPCCMPRP | -0.579
RRIRFRPPRLPRPRPRPCEHPRP | -0.00783
RRIRFRPPRLPRPRPRPCELPRP | 0.00618
RRIRFRPPRLPRPRPRPCFEPRP | -0.0728
RRIRFRPPRLPRPRPRPCFWPRP | 0.0499
RRIRFRPPRLPRPRPRPCGFPRP | 0.0163
RRIRFRPPRLPRPRPRPCKGPRP | 0.000407
RRIRFRPPRLPRPRPRPCKKPRP | -0.000348
RRIRFRPPRLPRPRPRPCKVPRP | 0.0595
RRIRFRPPRLPRPRPRPCMFPRP | -0.556
RRIRFRPPRLPRPRPRPCMLPRP | -0.591
RRIRFRPPRLPRPRPRPCMYPRP | -0.418
RRIRFRPPRLPRPRPRPCNGPRP | -0.212
RRIRFRPPRLPRPRPRPCNWPRP | 0.128
RRIRFRPPRLPRPRPRPCPFPRP | -0.988
RRIRFRPPRLPRPRPRPCQGPRP | -0.198
RRIRFRPPRLPRPRPRPCQMPRP | -0.981
RRIRFRPPRLPRPRPRPCSGPRP | -0.427
RRIRFRPPRLPRPRPRPCTFPRP | -0.0554
RRIRFRPPRLPRPRPRPCTQPRP | -0.549
RRIRFRPPRLPRPRPRPCVMPRP | -0.143
RRIRFRPPRLPRPRPRPCVRPRP | -0.0911

Sequence | shrunken log2 fold change
RRIRFRPPRLPRPRPRPCWEPRP | -0.356
RRIRFRPPRLPRPRPRPCYGPRP | -0.0414
RRIRFRPPRLPRPRPRPCYPPRP | -0.451
RRIRFRPPRLPRPRPRPDDMPRP | -0.0994
RRIRFRPPRLPRPRPRPDDWPRP | 0.044
RRIRFRPPRLPRPRPRPDEPPRP | 0.248
RRIRFRPPRLPRPRPRPDFAPRP | 0.0852
RRIRFRPPRLPRPRPRPDFTPRP | 0.138
RRIRFRPPRLPRPRPRPDFVPRP | -0.0292
RRIRFRPPRLPRPRPRPDGKPRP | -0.3
RRIRFRPPRLPRPRPRPDGWPRP | 0.13
RRIRFRPPRLPRPRPRPDIQPRP | -0.628
RRIRFRPPRLPRPRPRPDLHPRP | -0.274
RRIRFRPPRLPRPRPRPDLKPRP | 0.166
RRIRFRPPRLPRPRPRPDMTPRP | -0.0215
RRIRFRPPRLPRPRPRPDNEPRP | -0.0688
RRIRFRPPRLPRPRPRPDPPPRP | 0.37
RRIRFRPPRLPRPRPRPDQIPRP | -0.0948
RRIRFRPPRLPRPRPRPDQTPRP | 0.0441
RRIRFRPPRLPRPRPRPDQWPRP | -0.125
RRIRFRPPRLPRPRPRPDRHPRP | -0.164
RRIRFRPPRLPRPRPRPDRRPRP | -0.39
RRIRFRPPRLPRPRPRPDSKPRP | -0.788
RRIRFRPPRLPRPRPRPDTSPRP | -0.985
RRIRFRPPRLPRPRPRPDVCPRP | -0.1

Sequence | shrunken log2 fold change
RRIRFRPPRLPRPRPRPDVFPRP | -0.119
RRIRFRPPRLPRPRPRPDVKPRP | -0.0558
RRIRFRPPRLPRPRPRPDVMPRP | -0.0908
RRIRFRPPRLPRPRPRPDVNPRP | 0.00585
RRIRFRPPRLPRPRPRPDWHPRP | -0.152
RRIRFRPPRLPRPRPRPDYEPRP | -0.407
RRIRFRPPRLPRPRPRPDYHPRP | -0.935
RRIRFRPPRLPRPRPRPEAQPRP | 0.383
RRIRFRPPRLPRPRPRPEAWPRP | 0.00383
RRIRFRPPRLPRPRPRPECMPRP | 0.0416
RRIRFRPPRLPRPRPRPECRPRP | -0.0408
RRIRFRPPRLPRPRPRPEDCPRP | 0.121
RRIRFRPPRLPRPRPRPEDKPRP | -0.0503
RRIRFRPPRLPRPRPRPEEEPRP | 0.78
RRIRFRPPRLPRPRPRPEFCPRP | 0.139
RRIRFRPPRLPRPRPRPEGNPRP | -0.0429
RRIRFRPPRLPRPRPRPEGPPRP | 0.0494
RRIRFRPPRLPRPRPRPEGRPRP | -0.145
RRIRFRPPRLPRPRPRPEGTPRP | 0.055
RRIRFRPPRLPRPRPRPEMEPRP | 0.252
RRIRFRPPRLPRPRPRPENCPRP | -0.855
RRIRFRPPRLPRPRPRPEPWPRP | 0.172
RRIRFRPPRLPRPRPRPEQMPRP | 0.19
RRIRFRPPRLPRPRPRPEQSPRP | 0.0672
RRIRFRPPRLPRPRPRPEQVPRP | 0.0138

Sequence | shrunken log2 fold change
RRIRFRPPRLPRPRPRPERHPRP | -0.00647
RRIRFRPPRLPRPRPRPEWMPRP | 0.236
RRIRFRPPRLPRPRPRPEYNPRP | -0.113
RRIRFRPPRLPRPRPRPFAEPRP | -0.348
RRIRFRPPRLPRPRPRPFCYPRP | -0.372
RRIRFRPPRLPRPRPRPFDMPRP | -0.294
RRIRFRPPRLPRPRPRPFFFPRP | 0.121
RRIRFRPPRLPRPRPRPFFGPRP | 0.0944
RRIRFRPPRLPRPRPRPFFHPRP | -0.18
RRIRFRPPRLPRPRPRPFHAPRP | -0.393
RRIRFRPPRLPRPRPRPFIRPRP | -0.588
RRIRFRPPRLPRPRPRPFKPPRP | -0.147
RRIRFRPPRLPRPRPRPFMDPRP | -0.00928
RRIRFRPPRLPRPRPRPFRGPRP | -0.224
RRIRFRPPRLPRPRPRPFRNPRP | 0.0579
RRIRFRPPRLPRPRPRPFSIPRP | -0.401
RRIRFRPPRLPRPRPRPFSWPRP | -0.00262
RRIRFRPPRLPRPRPRPFTRPRP | 0.0083
RRIRFRPPRLPRPRPRPFVGPRP | -0.0219
RRIRFRPPRLPRPRPRPFVYPRP | -0.413
RRIRFRPPRLPRPRPRPGANPRP | -0.0673
RRIRFRPPRLPRPRPRPGAYPRP | 0.116
RRIRFRPPRLPRPRPRPGCFPRP | 0.0214
RRIRFRPPRLPRPRPRPGCYPRP | -0.238
RRIRFRPPRLPRPRPRPGEAPRP | 0.416

Sequence | shrunken log2 fold change
RRIRFRPPRLPRPRPRPGGCPRP | 0.432
RRIRFRPPRLPRPRPRPGHEPRP | -0.196
RRIRFRPPRLPRPRPRPGIDPRP | -0.0216
RRIRFRPPRLPRPRPRPGLVPRP | -0.0941
RRIRFRPPRLPRPRPRPGPHPRP | 0.305
RRIRFRPPRLPRPRPRPGPYPRP | -0.0125
RRIRFRPPRLPRPRPRPGQVPRP | -0.131
RRIRFRPPRLPRPRPRPGRPPRP | 0.514
RRIRFRPPRLPRPRPRPGTYPRP | -0.851
RRIRFRPPRLPRPRPRPGYIPRP | -0.0716
RRIRFRPPRLPRPRPRPHACPRP | -0.867
RRIRFRPPRLPRPRPRPHAHPRP | -0.0397
RRIRFRPPRLPRPRPRPHATPRP | -0.0624
RRIRFRPPRLPRPRPRPHDDPRP | -0.531
RRIRFRPPRLPRPRPRPHDRPRP | 0.0063
RRIRFRPPRLPRPRPRPHDSPRP | 0.0531
RRIRFRPPRLPRPRPRPHEFPRP | -0.0308
RRIRFRPPRLPRPRPRPHEIPRP | -0.0536
RRIRFRPPRLPRPRPRPHEPPRP | -0.164
RRIRFRPPRLPRPRPRPHFEPRP | -0.185
RRIRFRPPRLPRPRPRPHFLPRP | -0.827
RRIRFRPPRLPRPRPRPHFPPRP | -0.212
RRIRFRPPRLPRPRPRPHGAPRP | 0.109
RRIRFRPPRLPRPRPRPHGTPRP | -0.134
RRIRFRPPRLPRPRPRPHHDPRP | -0.379
